Consider four molecules from patent publication US20140087995A1 (published 2014).

Numbered stars: 1 amine (or outer) side, 2 acyl side, 3 side chain; on linkers, the order of the positions; unused ones are H or OH. Bridge positions count the residues as written; N and C are the ends. Side chains are listed from the residue outwards. Ends that are not written are not given here. * marks the point of attachment. C20 diacid = O=C(O)CCCCCCCCCCCCCCCCCCC(=O)*; γGlu = O=C(O)[C@H](CCC(=O)[*:2])N[*:1]

Assay [1] addresses T1, rat calcitonin receptor (rat, UniProt P32214 25-516).
T1 construct: whole, on cells; Used as membranes prepared from BHK tk'ts 13 cells transiently transfected with the rat calcitonin receptor (Assay VIII); also called rCTR; rat calcitonin (a) receptor
T1 sequence (looked up): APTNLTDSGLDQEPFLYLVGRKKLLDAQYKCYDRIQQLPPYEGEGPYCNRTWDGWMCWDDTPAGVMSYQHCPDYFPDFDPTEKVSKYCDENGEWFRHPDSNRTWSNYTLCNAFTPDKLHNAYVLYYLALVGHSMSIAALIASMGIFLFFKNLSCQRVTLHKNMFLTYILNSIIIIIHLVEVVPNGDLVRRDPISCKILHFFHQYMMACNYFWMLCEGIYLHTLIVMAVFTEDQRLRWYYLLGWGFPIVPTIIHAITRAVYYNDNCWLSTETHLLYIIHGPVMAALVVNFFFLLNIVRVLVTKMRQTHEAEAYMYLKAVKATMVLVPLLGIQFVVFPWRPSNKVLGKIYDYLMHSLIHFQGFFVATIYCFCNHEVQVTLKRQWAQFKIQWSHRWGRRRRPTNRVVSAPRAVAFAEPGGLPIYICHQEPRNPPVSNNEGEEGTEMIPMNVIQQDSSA
Description: IC50 on rat CTR divided by IC50 on rat amylin receptor (Assays VIII/VI).

Assay [2] concerns the target T2, rat amylin receptor (rat calcitonin receptor + rat RAMP 3) (rat, UniProt P32214 25-516; Q9JJ73 23-147).
T2 construct: whole, on cells; Used as membranes prepared from BHK tk'ts 13 cells transiently transfected with rat calcitonin receptor and rat RAMP 3 (Assay VI); also called rAmylin-R; rat amylin 3(a) receptor
T2 sequence (looked up) 1: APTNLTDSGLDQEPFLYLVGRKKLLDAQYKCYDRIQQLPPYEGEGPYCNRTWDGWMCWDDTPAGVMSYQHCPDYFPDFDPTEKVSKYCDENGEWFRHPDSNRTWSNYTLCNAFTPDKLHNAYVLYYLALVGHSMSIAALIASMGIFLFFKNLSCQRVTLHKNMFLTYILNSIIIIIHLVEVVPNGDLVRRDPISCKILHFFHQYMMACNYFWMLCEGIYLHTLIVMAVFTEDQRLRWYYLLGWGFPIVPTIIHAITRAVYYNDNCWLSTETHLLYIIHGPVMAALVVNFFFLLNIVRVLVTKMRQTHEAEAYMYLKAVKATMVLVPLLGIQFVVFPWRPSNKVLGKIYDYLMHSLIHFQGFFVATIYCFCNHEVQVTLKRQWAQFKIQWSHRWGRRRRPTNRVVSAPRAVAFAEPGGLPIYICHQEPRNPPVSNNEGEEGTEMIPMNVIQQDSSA
T2 sequence (looked up) 2: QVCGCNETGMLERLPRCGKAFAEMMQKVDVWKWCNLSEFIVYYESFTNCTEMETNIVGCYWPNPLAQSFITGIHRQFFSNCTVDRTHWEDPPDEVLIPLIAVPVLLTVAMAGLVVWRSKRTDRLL
Description: SPA competition with 125I-rat amylin, membranes of BHK cells with rat CTR + rat RAMP3 (Assay VI).

Assay [3] addresses T3, human calcitonin receptor (human, UniProt P30988 25-474).
T3 construct: whole, on cells; Used as membranes prepared from a BHK tk'ts 13 cell line stably transfected with the human calcitonin receptor (Assay VII); also called hCTR; hCT
T3 sequence (looked up): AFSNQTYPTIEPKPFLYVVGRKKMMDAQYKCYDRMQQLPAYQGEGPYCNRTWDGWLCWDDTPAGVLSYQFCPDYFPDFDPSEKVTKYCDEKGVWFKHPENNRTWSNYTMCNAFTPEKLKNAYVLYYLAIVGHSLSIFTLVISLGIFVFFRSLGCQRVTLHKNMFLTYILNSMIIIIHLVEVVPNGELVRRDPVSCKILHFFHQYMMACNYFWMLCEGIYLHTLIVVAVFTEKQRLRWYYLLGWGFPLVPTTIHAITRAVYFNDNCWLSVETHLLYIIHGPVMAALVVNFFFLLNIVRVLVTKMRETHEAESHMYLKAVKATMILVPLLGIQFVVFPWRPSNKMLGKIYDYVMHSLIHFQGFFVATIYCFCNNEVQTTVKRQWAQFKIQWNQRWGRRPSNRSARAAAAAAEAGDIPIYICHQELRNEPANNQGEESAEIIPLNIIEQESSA
In words: IC50 on human CTR divided by IC50 on human amylin receptor (Assays VII/V). Put shortly:
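Competition binding by SPA with cell membranes (35 ng/μL) and SPA beads in 50 mM Hepes pH 7.4 with 1 mM CaCl2, 5 mM MgCl2, 0.1% OA and 0.02% Tween20. Incubated 120 min at 25 °C with shaking, then counted.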

For assay [4], the target named is T1, rat calcitonin receptor. Description: SPA competition with 125I-calcitonin, membranes of BHK cells with rat CTR (Assay VIII).

B1: N^ε-[(4S)-4-carboxy-4-(19-carboxynonadecanoylamino)butanoyl]Lys[Arg1,Arg17,Pro21,Pro27,His35]-h-amylin (peptide)
peptide: K([γGlu-C20 diacid])RCNTATCATQRLANFLRHSSPNFGAIPSSTNVGSHTY-NH2
modifications: disulfide 3-8; N-terminus assumed
SMILES: CC[C@H](C)[C@H](NC(=O)[C@H](C)NC(=O)CNC(=O)[C@H](Cc1ccccc1)NC(=O)[C@H](CC(N)=O)NC(=O)[C@@H]1CCCN1C(=O)[C@H](CO)NC(=O)[C@H](CO)NC(=O)[C@H](Cc1c[nH]cn1)NC(=O)[C@H](CCCNC(=N)N)NC(=O)[C@H](CC(C)C)NC(=O)[C@H](Cc1ccccc1)NC(=O)[C@H](CC(N)=O)NC(=O)[C@H](C)NC(=O)[C@H](CC(C)C)NC(=O)[C@H](CCCNC(=N)N)NC(=O)[C@H](CCC(N)=O)NC(=O)[C@@H](NC(=O)[C@H](C)NC(=O)[C@@H]1CSSC[C@H](NC(=O)[C@H](CCCNC(=N)N)NC(=O)[C@@H](N)CCCCNC(=O)CC[C@H](NC(=O)CCCCCCCCCCCCCCCCCCC(=O)O)C(=O)O)C(=O)N[C@@H](CC(N)=O)C(=O)N[C@@H]([C@@H](C)O)C(=O)N[C@@H](C)C(=O)N[C@@H]([C@@H](C)O)C(=O)N1)[C@@H](C)O)C(=O)N1CCC[C@H]1C(=O)N[C@@H](CO)C(=O)N[C@@H](CO)C(=O)N[C@H](C(=O)N[C@@H](CC(N)=O)C(=O)N[C@H](C(=O)NCC(=O)N[C@@H](CO)C(=O)N[C@@H](Cc1c[nH]cn1)C(=O)N[C@H](C(=O)N[C@@H](Cc1ccc(O)cc1)C(N)=O)[C@@H](C)O)C(C)C)[C@@H](C)O
notes: Analogue of human amylin; also called compound 44
In general, IC50 refers to the concentration that inhibits the measured activity by half. B1: the “Ratio rCT/rAmylin binding” value in assay [1] stood at 53.3. The IC50 is 0.369 nM in assay [2] and 19.6 nM in assay [4]. In addition, in assay [3], the “Ratio hCT/hAmylin binding” value amounted to 17.7.

B2: N^ε1-[(4S)-4-carboxy-4-(19-carboxynonadecanoylamino)butanoyl]-[His14,Arg17,Pro21,Pro27]-h-amylin (peptide)
peptide: K([γGlu-C20 diacid])CNTATCATQRLAHFLRHSSPNFGAIPSSTNVGSNTY-NH2
modifications: disulfide 2-7; N-terminus assumed
SMILES: CC[C@H](C)[C@H](NC(=O)[C@H](C)NC(=O)CNC(=O)[C@H](Cc1ccccc1)NC(=O)[C@H](CC(N)=O)NC(=O)[C@@H]1CCCN1C(=O)[C@H](CO)NC(=O)[C@H](CO)NC(=O)[C@H](Cc1c[nH]cn1)NC(=O)[C@H](CCCNC(=N)N)NC(=O)[C@H](CC(C)C)NC(=O)[C@H](Cc1ccccc1)NC(=O)[C@H](Cc1c[nH]cn1)NC(=O)[C@H](C)NC(=O)[C@H](CC(C)C)NC(=O)[C@H](CCCNC(=N)N)NC(=O)[C@H](CCC(N)=O)NC(=O)[C@@H](NC(=O)[C@H](C)NC(=O)[C@@H]1CSSC[C@H](NC(=O)[C@@H](N)CCCCNC(=O)CC[C@H](NC(=O)CCCCCCCCCCCCCCCCCCC(=O)O)C(=O)O)C(=O)N[C@@H](CC(N)=O)C(=O)N[C@@H]([C@@H](C)O)C(=O)N[C@@H](C)C(=O)N[C@@H]([C@@H](C)O)C(=O)N1)[C@@H](C)O)C(=O)N1CCC[C@H]1C(=O)N[C@@H](CO)C(=O)N[C@@H](CO)C(=O)N[C@H](C(=O)N[C@@H](CC(N)=O)C(=O)N[C@H](C(=O)NCC(=O)N[C@@H](CO)C(=O)N[C@@H](CC(N)=O)C(=O)N[C@H](C(=O)N[C@@H](Cc1ccc(O)cc1)C(N)=O)[C@@H](C)O)C(C)C)[C@@H](C)O
notes: Analogue of human amylin; also called compound 70
In the case of B2, the “Ratio rCT/rAmylin binding” value in assay [1] is 96.5. For the same molecule, the IC50 in assay [2] amounted to 0.355 nM; in assay [4] it was 34.2 nM. Further, the “Ratio hCT/hAmylin binding” value in assay [3] came out at 60.8.

B3: N^ε21-[(4S)-4-carboxy-4-[[(4S)-4-carboxy-4-(19-carboxynonadecanoylamino)butanoyl]amino]butanoyl]-[Asp14,Arg17,Lys21,Pro27,Asp35]-h-amylin (peptide)
peptide: KCNTATCATQRLADFLRHSSK([γGlu-γGlu-C20 diacid])NFGAIPSSTNVGSDTY-NH2
modifications: disulfide 2-7; N-terminus assumed
SMILES: CC[C@H](C)[C@H](NC(=O)[C@H](C)NC(=O)CNC(=O)[C@H](Cc1ccccc1)NC(=O)[C@H](CC(N)=O)NC(=O)[C@H](CCCCNC(=O)CC[C@H](NC(=O)CC[C@H](NC(=O)CCCCCCCCCCCCCCCCCCC(=O)O)C(=O)O)C(=O)O)NC(=O)[C@H](CO)NC(=O)[C@H](CO)NC(=O)[C@H](Cc1c[nH]cn1)NC(=O)[C@H](CCCNC(=N)N)NC(=O)[C@H](CC(C)C)NC(=O)[C@H](Cc1ccccc1)NC(=O)[C@H](CC(=O)O)NC(=O)[C@H](C)NC(=O)[C@H](CC(C)C)NC(=O)[C@H](CCCNC(=N)N)NC(=O)[C@H](CCC(N)=O)NC(=O)[C@@H](NC(=O)[C@H](C)NC(=O)[C@@H]1CSSC[C@H](NC(=O)[C@@H](N)CCCCN)C(=O)N[C@@H](CC(N)=O)C(=O)N[C@@H]([C@@H](C)O)C(=O)N[C@@H](C)C(=O)N[C@@H]([C@@H](C)O)C(=O)N1)[C@@H](C)O)C(=O)N1CCC[C@H]1C(=O)N[C@@H](CO)C(=O)N[C@@H](CO)C(=O)N[C@H](C(=O)N[C@@H](CC(N)=O)C(=O)N[C@H](C(=O)NCC(=O)N[C@@H](CO)C(=O)N[C@@H](CC(=O)O)C(=O)N[C@H](C(=O)N[C@@H](Cc1ccc(O)cc1)C(N)=O)[C@@H](C)O)C(C)C)[C@@H](C)O
notes: Analogue of human amylin; also called compound 59
Turning to B3, in assay [1], the “Ratio rCT/rAmylin binding” value stood at 28.5. Further, the IC50 in assay [2] was found to be 0.659 nM; in assay [4], 18.8 nM. The “Ratio hCT/hAmylin binding” value in assay [3] is 4.3.

B4: N^ε1N^ε1-[(4S)-4-carboxy-4-(19-carboxynonadecanoylamino)butanoyl]-[His14,Arg17,Pro21,Pro27,Pro34]-h-amylin (peptide)
peptide: K([γGlu-C20 diacid])CNTATCATQRLAHFLRHSSPNFGAIPSSTNVGPNTY-NH2
modifications: disulfide 2-7; N-terminus assumed
SMILES: CC[C@H](C)[C@H](NC(=O)[C@H](C)NC(=O)CNC(=O)[C@H](Cc1ccccc1)NC(=O)[C@H](CC(N)=O)NC(=O)[C@@H]1CCCN1C(=O)[C@H](CO)NC(=O)[C@H](CO)NC(=O)[C@H](Cc1c[nH]cn1)NC(=O)[C@H](CCCNC(=N)N)NC(=O)[C@H](CC(C)C)NC(=O)[C@H](Cc1ccccc1)NC(=O)[C@H](Cc1c[nH]cn1)NC(=O)[C@H](C)NC(=O)[C@H](CC(C)C)NC(=O)[C@H](CCCNC(=N)N)NC(=O)[C@H](CCC(N)=O)NC(=O)[C@@H](NC(=O)[C@H](C)NC(=O)[C@@H]1CSSC[C@H](NC(=O)[C@@H](N)CCCCNC(=O)CC[C@H](NC(=O)CCCCCCCCCCCCCCCCCCC(=O)O)C(=O)O)C(=O)N[C@@H](CC(N)=O)C(=O)N[C@@H]([C@@H](C)O)C(=O)N[C@@H](C)C(=O)N[C@@H]([C@@H](C)O)C(=O)N1)[C@@H](C)O)C(=O)N1CCC[C@H]1C(=O)N[C@@H](CO)C(=O)N[C@@H](CO)C(=O)N[C@H](C(=O)N[C@@H](CC(N)=O)C(=O)N[C@H](C(=O)NCC(=O)N1CCC[C@H]1C(=O)N[C@@H](CC(N)=O)C(=O)N[C@H](C(=O)N[C@@H](Cc1ccc(O)cc1)C(N)=O)[C@@H](C)O)C(C)C)[C@@H](C)O
notes: Analogue of human amylin; also called compound 67
In the case of B4, the “Ratio rCT/rAmylin binding” value in assay [1] is 85.4. In addition, the IC50 was found to be 0.172 nM in assay [2] and 14.7 nM in assay [4]. For the same molecule, the “Ratio hCT/hAmylin binding” value in assay [3] was 51.6.
